Measured values: the MegaScale stability set (Tsuboyama et al. 2023)

B1: EHEE_rd2_0601 (parent)
chain: TYTYKLTDEEASRRAEDEWRNRGYDVRVRNNNGTWEVEVR

Variants of: B1
Test: folding stability dG (cDNA display proteolysis); higher = more stable
Conditions: PBS, room temperature

Folding stability dG [kcal/mol], by site and new letter:
R29: G 0.418 | H 1.49 | I 1.78 | K 1.35 | L 1.4 | M 1.26 | N 1.17 | P -0.71 | Q 1.18 | S 1.55 | T 1.86 | V 1.67 | W 1.56 | Y 1.74
N30: A 1.03 | D 1 | E 1.7 | F 2.29 | G 0.639 | H 1.61 | I 1.35 | K 1.34 | L 1.6 | M 1.4 | P 0.863 | Q 1.51 | R 1.23 | S 1.1 | T 0.81 | V 1.43 | W 1.8 | Y 2.33
N31: A 0.996 | D 1.06 | E 1.12 | F 1.42 | G 0.546 | H 1.32 | I 1.76 | K 1.16 | L 1.51 | M 1.31 | P -0.345 | Q 1.08 | R 1.34 | S 1.1 | T 1.21 | V 1.83 | W 1.02 | Y 1.4
N32: A 1.12 | D 1.16 | E 1.15 | F 0.778 | G 1.39 | H 1.07 | I -0.191 | K 0.989 | L 0.77 | M 1.08 | Q 1.05 | R 0.859 | S 0.857 | T 0.049 | V 0.08 | W -0.071 | Y 0.605
G33: A -0.168 | C 0.74 | D 0.603 | E 0.259 | F -0.159 | H -0.011 | K -0.238 | L -0.48 | M -0.081 | N 0.553 | Q 0.157 | R -0.712 | S 0.025 | T -0.078 | V -0.925 | W -0.61 | Y -0.464
T34: A 1.17 | D 0.864 | E 1.28 | F 1.62 | G 0.674 | H 1.2 | I 2 | K 0.867 | L 1.48 | M 1.58 | N 0.99 | Q 1.48 | R 0.865 | S 1.28 | V 2.01 | W 1.54 | Y 1.66
W35: C -0.208 | F 0.888 | I 0.328 | L -0.206 | M -0.533 | P -0.671 | T -0.644 | V -0.844 | Y 0.894
E36: A 0.137 | C 1.26 | D 0.292 | F 1.75 | H 0.826 | I 1.93 | L 1.6 | M 1.19 | N 0.173 | Q 0.744 | R -0.245 | S 0.611 | T 1.27 | V 1.58 | W 1.83 | Y 1.98
V37: A -0.419 | F 0.362 | H 0.241 | I 1.75 | L 1.46 | M 0.715 | T -0.63 | W -0.973 | Y -0.753
E38: A 0.691 | D 0.701 | F 1.03 | G -0.74 | H 1.02 | I 1.77 | K 0.392 | L 1.28 | M 1.33 | N 0.56 | Q 1.2 | R 0.772 | S 1.23 | T 1.71 | V 1.61 | W 0.84 | Y 1.03
V39: A -0.517 | C 1.46 | F 0.048 | H -0.712 | I 1.41 | L 0.587 | M -0.536 | R -0.789 | T -0.975 | W -0.503 | Y -0.431
R40: A 1.03 | C 1.7 | D 0.685 | E 0.721
